Source: patent US20240117334A1, “FACTOR B PROTEASES” (Vertex Pharmaceuticals Incorporated, priority 2021, published 2024)
Numbering of substitutions follows the chain as printed. Names may count otherwise. “And” between values parts separate entries of the source, which are not always exact repeats. Equal entries are not always repeated. Where two headings read alike, the source gives them in different places. Blank lines part the entries; values can stand above or below the molecule they belong to.

Tests used:
[1] = Baseline stability in indirect and MTSP buffer (+/-EDTA) and PBS at 37° C., peptide substrate EGVDAE-QF; type: physicochemical; conditions: indirect buffer pH 7.4, MTSP buffer
Protocol: Further, various chymase-based engineered proteases were tested to evaluate their baseline stability, by testing the effects of indirect and MTSP buffer (+/−EDTA) on the chymase-based engineered proteases. The peptide substrate EGVDAE-QF (SEQ ID NO: 52) was used for these experiments.
FIGS. 4A-4E depict graphs showing the stability of five different chymase proteases tested using a peptide substrate, in PBS, at 37° C.

[2] = target: T1, Human Factor B (Homo sapiens, UniProt P00751); experiment: Human Factor B cleavage EC50 in 80% human plasma (Table 10A); type: biochemical; conditions: chymase-based; 64% plasma; read-out: fB Cleavage, 64% plasma EC50
T1 sequence (P00751 26-764): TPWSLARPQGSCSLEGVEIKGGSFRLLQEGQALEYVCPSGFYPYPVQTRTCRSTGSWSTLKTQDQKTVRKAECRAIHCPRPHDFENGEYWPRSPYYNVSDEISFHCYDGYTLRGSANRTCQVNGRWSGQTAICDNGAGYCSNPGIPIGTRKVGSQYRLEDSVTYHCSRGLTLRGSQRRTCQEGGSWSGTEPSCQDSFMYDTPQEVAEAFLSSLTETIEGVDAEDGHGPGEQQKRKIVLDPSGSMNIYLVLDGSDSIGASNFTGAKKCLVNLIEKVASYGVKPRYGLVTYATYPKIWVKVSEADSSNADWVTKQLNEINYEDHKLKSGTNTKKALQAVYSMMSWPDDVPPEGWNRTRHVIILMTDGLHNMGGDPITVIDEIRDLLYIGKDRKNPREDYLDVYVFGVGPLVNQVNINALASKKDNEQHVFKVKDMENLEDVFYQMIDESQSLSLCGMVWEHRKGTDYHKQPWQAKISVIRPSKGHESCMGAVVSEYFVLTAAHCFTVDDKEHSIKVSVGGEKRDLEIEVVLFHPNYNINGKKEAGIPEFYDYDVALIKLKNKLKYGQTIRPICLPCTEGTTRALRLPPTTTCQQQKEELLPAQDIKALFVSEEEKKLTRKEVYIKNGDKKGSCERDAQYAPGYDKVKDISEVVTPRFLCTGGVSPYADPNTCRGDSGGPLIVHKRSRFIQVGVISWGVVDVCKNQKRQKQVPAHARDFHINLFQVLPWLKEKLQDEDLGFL

[3] = test system: serpins; experiment: Serpin inhibition tests of chymase-based engineered proteases; type: biochemical
Protocol: Inhibition tests were carried out using chymase-based engineered proteases. Various serpins, which are capable of inhibiting protease activity, were used to test whether these could be used for adequate inhibition of the tested chymase-based engineered proteases, to enable selection of an engineered protease resistant to inhibition in plasma. All references in this Example to engineered proteases are depicted in chymotrypsin numbering. The chymotrypsin numbering key for the modified protease domains of engineered proteases are found in Tables 2, 4, and 6 for uPA, MTSP-1, and chymase, respectively.

[4] = target: T1, Human Factor B; experiment: Human Factor B cleavage EC50 in 80% human plasma (Table 10A); type: biochemical
Protocol: Cleavage of Factor B by various engineered proteases was evaluated. Engineered chymase-, MTSP-1-, and uPA-based proteases were tested. All references in this Example, including Tables 10A, 10B, 11A, and 11B, to engineered proteases are depicted in chymotrypsin numbering. The chymotrypsin numbering key for the modified protease domains of engineered proteases are found in Tables 2, 4, and 6 for uPA, MTSP-1, and chymase, respectively. These experiments were also performed to evaluate the stability of non-naturally occurring chymases in various media, including cynomolgus monkey vitreous humor, human plasma, and phosphate buffered saline (PBS). Briefly, Factor B was diluted into an assay buffer and incubated at 37° C. with naturally occurring (wild type) and non-naturally occurring (engineered) proteases in vitreous humor, plasma, or PBS, and the reactions were quenched with HCl at various time points. The time points tested for chymase include T=0 which used 6 hours pre-incubation, T=2 hours which used 4 hours pre-incubation, T=4 hours which used 2 hours pre-incubation, and T=6 hours which used 0 hours pre-incubation. Assaying of the sample was performed with ELISA, or alpha screen for human C3 cleavage, using standard protocols.
A summary of the results is presented in Tables 10A-10B below, showing the various tested proteases, the concentration of the protease used in nM and the EC50 of human Factor B cleavage. Table 10 presents human Factor B cleavage by various non-naturally occurring chymase-based engineered proteases, tested in 80% human plasma, compared against a chymase comprising the mutation string […]. Blank cells indicate that a test was not performed for a particular protease mutation string.

[5] = Half-life in 50% human plasma of chymase-based engineered proteases; type: in vitro ADME; conditions: EGVD′AE substrate
Protocol: Table 10B presents human Factor B cleavage by various engineered chymase-, MTSP-1-, or uPA-based proteases, tested in mouse or human plasma. For ELISA analysis of Factor B cleavage, briefly, anti-Ba was used, and Bb was detected with anti-Bb. A dynamic range of 25-1600 pM was used. Half-life in 50% human plasma was also calculated for various chymase-based engineered proteases.

B1: Wild type or naturally occurring chymase: wild type human mast cell chymase protease domain (SEQ ID NO: 6) (protein, listed as Homo sapiens)
chain: IIGGTECKPHSRPYMAYLEIVTSNGPSKFCGGFLIRRNFVLTAAHCAGRSITVTLGAHNITEEEDTWQKLEVIKQFRHPKYNTSTLHHDIMLLKLKEKASLTLAVGTLPFPSQFNFVPPGRMCRVAGWGRTGVLKPGSDTLQEVKLRLMDPQACSHFRDFDHNLQLCVGNPRKTKSAFKGDSGGPLLCAGVAQGIVSYGRSDAKPPAVFTRISHYRPWINQILQAN
- stability (remaining activity) in buffers, peptide substrate [1]: loss of activity in all buffers

- EC50 [2]: 6000 nM and 5620 nM
- kapp ([3]; Plasma Inhibitor: ACT): 428 M⁻¹ s⁻¹
- kapp ([3]; Plasma Inhibitor: alpha-2-marcroglobin (A2M)): 645 M⁻¹ s⁻¹
- EC50 ([4]; Table 20, cleavage activity as of Table 10, unit inferred, read-out: EC50 Fb Cleavage): 170 nM
- EC50 ([4]; chymase-based engineered proteases, no plasma stated, read-out: fB Cleavage EC50): 151 to 182 nM and 177 nM
B2: C22S/F173Y/D175N/A226R: chymase-based engineered protease (protein, listed as Homo sapiens)
chain: B1 chain with C7S, F157Y, D159N, A207R
- t1/2 in 50% human plasma (min) (EGVD′AE)(SEQ ID NO: 13) [5]: 7.3 min and 9.0 min
